Publication PMC10615762

Target: prefusion-stabilized SARS-CoV-2 spike protein (S-clamp) (SARS-CoV-2)
Experiment: SEC

“prefusion-stabilized SARS-CoV-2 spike protein (S-clamp)” was tested, and the stoichiometry N was 3.
